This data set concerns the molecule itself. Kind of data set: cryo-EM structure.

B1: Thermophilic Factor 55 β subunit (TF55β) chaperonin complex from Sulfolobus solfataricus (natural protein, S. solfataricus, UniProt Q9V2T8 1-554, looked up)
chain: MATATVATTPEGIPVIILKEGSSRTYGKEALRANIAAVKAIEEALKSTYGPRGMDKMLVDSLGDITITNDGATILDKMDLQHPTGKLLVQIAKGQDEETADGTKTAVILAGELAKKAEDLLYKEIHPTIIVSGYKKAEEIALKTIQEIAQPVTINDTDVLRKVALTSLGSKAVAGAREYLADLVVKAVAQVAELRGDKWYVDLDNVQIVKKHGGSVNDTQLVYGIVVDKEVVHPGMPKRIENAKIALLDASLEVEKPELDAEIRINDPTQMHKFLEEEENILKEKVDKIAATGANVVICQKGIDEVAQHYLAKKGILAVRRAKKSDLEKLARATGGRVISNIDELTSQDLGYAALVEERKVGEDKMVFVEGAKNPKSVSILIRGGLERVVDETERALRDALGTVADVIRDGRAVAGGGAVEIEIAKRLRKYAPQVGGKEQLAIEAYANAIEGLIMILAENAGLDPIDKLMQLRSLHENETNKWYGLNLFTGNPEDMWKLGVIEPALVKMNAVKAATEAVTLVLRIDDIVAAGKKSGSEPSGKKEKDKEEKSSED
Take B1: the stoichiometry N (usually the number of molecules, sites or subunits per partner or assembly) stood at 18.

For the origin of these results see publication doi:10.1101/2020.01.13.905216 (bioRxiv, 2020).
